The text below walks through data of publication PMC3119699, “Characterizing the Role of Cell-Wall β-1,3-Exoglucanase Xog1p in Candida albicans Adhesion by the Human Antimicrobial Peptide LL-37” (PLoS ONE, 2011).

No end group written: not given here.

For assay [1], the target named is T1, Xog1p, cell-wall β-1,3-exoglucanase of C. albicans (endogenous) (C. albicans (endogenous in SC5314)) (UniProt P29717).
T1 sequence: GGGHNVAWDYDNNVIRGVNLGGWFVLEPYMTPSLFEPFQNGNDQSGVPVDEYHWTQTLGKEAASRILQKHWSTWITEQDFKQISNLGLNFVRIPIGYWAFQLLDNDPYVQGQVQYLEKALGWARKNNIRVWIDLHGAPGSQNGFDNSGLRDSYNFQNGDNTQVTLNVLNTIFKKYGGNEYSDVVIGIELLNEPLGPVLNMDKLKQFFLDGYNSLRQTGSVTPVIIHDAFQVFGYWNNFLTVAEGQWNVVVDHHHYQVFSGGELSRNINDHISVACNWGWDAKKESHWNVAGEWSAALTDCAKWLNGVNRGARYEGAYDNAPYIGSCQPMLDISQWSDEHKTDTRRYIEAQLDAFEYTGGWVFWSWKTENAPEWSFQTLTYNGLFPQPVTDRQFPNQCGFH

The target in assay [2] is T2, Xog1_(90–115) (residues 90–115 from Xog1p) (C. albicans).
T2 construct: Residues 90–115 of C. albicans cell-wall β-1,3-exoglucanase Xog1p; also called Xog1p_(90–115); source: synthetic peptide (MDBio, Inc.)
T2 peptide: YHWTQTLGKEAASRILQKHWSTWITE
The assay is described as follows: ELISA; Xog1_(90–115) (5 µg) coated on wells; BA-LL37 0.01–5 µg/ml in 0.1% TBST, room temperature 1 h; SA-HRP, A450. To be noted: both partners purified.

Assay [3] deals with T3, soluble His-tagged recombinant Xog1p (rXog1p) (C. albicans, UniProt P29717 41-438).
T3 construct: An initiator Met comes from the NdeI site; No tag removal is described; also called full-length rXog1p; not shown: His tag (detected with anti-His6)
T3 sequence: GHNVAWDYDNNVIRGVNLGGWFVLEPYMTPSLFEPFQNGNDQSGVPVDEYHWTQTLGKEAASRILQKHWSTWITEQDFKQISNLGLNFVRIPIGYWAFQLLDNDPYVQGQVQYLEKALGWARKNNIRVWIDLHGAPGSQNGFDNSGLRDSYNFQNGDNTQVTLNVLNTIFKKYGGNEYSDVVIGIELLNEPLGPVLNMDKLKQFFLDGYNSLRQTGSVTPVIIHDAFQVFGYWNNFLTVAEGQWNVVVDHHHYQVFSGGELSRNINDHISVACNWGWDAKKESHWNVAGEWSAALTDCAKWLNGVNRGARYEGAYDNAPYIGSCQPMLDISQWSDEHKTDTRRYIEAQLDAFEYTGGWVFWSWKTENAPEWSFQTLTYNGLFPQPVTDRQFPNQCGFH
In words: pull-down; streptavidin-agarose, BA-LL37 (bait) and purified rXog1p in TBS, room temperature 2 h; six washes with TBS; Tricine SDS-PAGE, Coomassie Blue. As to conditions: both partners purified.

Turning to LLGDFFRKSKEKIGKEFKRIVQRIKDFLRNLVPRTES [LL-37 (human cathelicidin antimicrobial peptide)], the inhibition of C. albicans adhesion to polystyrene (XTT reduction) at 5 µg/ml (∼1.1 µM) LL-37 in assay [1] was 70%.

B1: biotinylated LL-37 (BA-LL37) (peptide)
peptide: LLGDFFRKSKEKIGKEFKRIVQRIKDFLRNLVPRTES
modifications: also: biotinylated (site not given here)
notes: LL-37, the mature 37-residue C-terminal peptide cut from human cathelicidin by proteinase-3; biotinylated; Detected or captured by its biotin (SA-HRP, SA-DTAF, streptavidin-agarose); source: synthetic peptide (MDBio, Inc.), 95% pure
Turning to B1, the binding result in assay [2] and in assay [3] was “binds” throughout.
